The record followed here is patent US20230293647A1 (AUTOLUS, published 2023).

B1: dAb clone 9 fused to Fc (Fc fusion)
chain: QVQLQESGGGLVQAGDSLRLSCAASGRTSDTMTIGWFRQAPGKEREFVASINWSGSTTYYADSVNERFTISRDDAKNTVYLQMNSLKPEDTAVYYCAAKRGVWTIKSAAADFASWGQGTQVTVSS
notes: also called clone C9 fused to Fc
B2: 74650 (Fc fusion)
scFv-Fc: QVQLQQSGAEVKKPGSSVKVSCKASGGTFSSYTISWVRQAPGQGLEWMGGITPILGIANYAQKFQGRVTITTDESTSTAYMELSSLRSEDTAVYYCARDTVMGGMDVWGQGTTVTVSSSYELTQPPSVSVAPGKTARITCGGNNIGSKSVHWYQQKPGQAPVLVVYDDSDRPSGIPERFSGSNSGNTATLTISRVEAGDEADYYCQVWDSSSDYVFGTGTKVTVL
B3: 74648 (Fc fusion)
scFv-Fc: EVQLVQSGGGVVQPGKSLRLSCAASGFAFSSYAMHWVRQAPGKGLEWVAVISYDGSNKYYADSVKGRFTISRDNSKNTLYLQMNSLRAEDTAVYYCARDRSYYLDYWGQGTLVTVSSETTLTQSPATLSLSPGERATLSCRASQSVRSNLAWYQQKPGQAPRPLIYDASTRATGIPDRFSGSGSGTDFTLTISRLEPEDFAVYYCQQRSNWPPTFGQGTKVEVK
B4: 74653 (Fc fusion)
scFv-Fc: QVQLQQPGAELVKPGASVKVSCKASGYTFTNYWIHWVKQRPGQGLEWIGEINPGNGRTNYNGNFMNKATLTVDKSSNTAYMQLSSLTSEDSAVYHCARLDYWGQGTTLTVSSELVMTQSPASLSVATGKKVTIRCISSTDIDDDMNWYQQKAGKPPKLLISEGNIFSPGVPSRFSSSGNGTDFVFTVENTLSEDVADNYCLQSDNMPFTFGSGTKLGIK
B5: 74649 (Fc fusion)
scFv-Fc: QAQLVESGGALVQPGRSLRLSCAASGFTFRNYAMHWVRQAPATGLQWLAVITSDGRNKFYADSVKGRFTISREDSKNTLYLQMDSLRGEDTAVYYCVTQRDNSRDYFPHYFHDMDVWGQGTTVAVSSDVVLTQSPLSLPVTLGQPASISCRSSQSLVYSDGDTYLNWFQQRPGQSPRRLIYQVSNRDSGVPDRFSGSGSGTDFTLKISRVEAEDVGVYYCMQGSHWPPTFGQGTKVEIK
B6: 74651 (Fc fusion)
scFv-Fc: EVQLEESGTVLARPGASVKMSCKASGYTFTTYRMHWIKQRPGQGLEWIGAIYPGNSDTTYNQKFKDKAKLTAVTSTSSAYMELSSLTNEDSAVYFCTREGIPQLLRTLDYWGQGTSVTVSSDILMTQSPSSLSASLGERVSLTCRASQEISGYLSWLQEKPDGTIKRLIYAASTLDSGVPKRFSGSRSGSDYSLTISSLESEDFADYYCLQYVSYPWTFGGGTKLEIK
B7: 74652 (Fc fusion)
scFv-Fc: QVQLLESGAELVKPGASVKVSCKASGYTFTSYWIHWVKQRPGQGLEWIGEINPSNGRTNYNGNFESKATLTVDKSSNTAYMHLSSLTYEDSAVYHCTRLDYWGQGTTLTVSSELVMTQSPASLSVITGKKVTIRCISNTDIDDDLNWSQLKAGEPPKLLISEGNIFSPGVPSRFSSSGNGTDFVFTIENTLSEDVANNYCFQSDNMPFTFGSGTKLEIK
B8: 74662 (Fc fusion)
scFv-Fc: EVQLVESGGGLVQPGGSLRLSCAASGFTFSGYPMHWVRQAPGKGLEWVAVISYDGSNKYYADSVKGRFTISRDNSKNTLYLQMNSLRAEDTAVYYCAKDGSPRTPSFDYWGQGTLVTVLEDIQMTQSPHSLSASVGDRVTITCRASQGISNYLAWYQQKPGKVPKLLIYAASTLQSGVPSRFSGSGSGTDFTLTISSLQPEDVGVYYCQQRFRTPVTFGQGTKLEIK
B9: 74655 (Fc fusion)
scFv-Fc: QVQLVQSGAEVKKPGASVKVSCKASGYTFTTYGISWVRQAPGQGLEWMGWISAYNGNTNYAQKLQGRVTMTTDTSTSTAYMELRSLRSDDTAVYYCARDDLSDYGEWLGPDYWGQGTLVTVSSQPGLTQPPSASGTPGQRVTISCSGSRSNIGGNTVNWYQHVPGTAPKLLIYSNNQRPSGVPDRFSGSKSGTSASLAISGLRSEDEAEYYCATWEDSLSGYVFGPGTKVTVL
B10: 74667 (Fc fusion)
scFv-Fc: QVQLVQSGAEVKKPGESLKISCKGSGYSFANHWIAWVRQMPGKGLEWMGIFNPDNSDTTYSPSFQGQVTFSADKSISIAYLHWSSLKASDTAIYYCARLALSDGWLHDFWGQGTLVTVSSEIVMTQSPLSLPVTLGQPASISCKSSQSLVDTNGNTYLIWFHQRPGQSPRRLIYQVSKRDSGVPDRFSGSGSGTDFTLKISRVEAEDVGVYFCMQGTYRPPTLGQGTKVEIK

The first experiment has as its target T1, SARS-CoV-2 Spike protein, S1 subunit (recombinant) (SARS-CoV-2, UniProt P0DTC2 16-681). Nature of the experiment: ELISA, coated SARS-CoV-2 S1; x axis Log Dilution factor, no concentration.
As for B1, the binding result is “binds”.

The next experiment has as its target T1, SARS-CoV-2 Spike protein, S1 subunit …. Put plainly: ELISA, scFv-Fc supernatant on coated SARS-CoV-2 S1; cut-off 3x background. (In an ELISA, binding on a coated surface is turned into a signal by an enzyme label.)
On to B2, for which the binding result was “no binding (tested: approximately 10 µg/ml)”.
With B3, the binding result is given as “no binding (tested: approximately 10 µg/ml)”.
On the same count and under the same terms, as for B4, the entry is “no binding (tested: approximately 10 µg/ml)”; as for B5, “no binding (tested: approximately 10 µg/ml)”; as for B6, “no binding (tested: approximately 10 µg/ml)”.
For B7, the binding result was “no binding (tested: approximately 10 µg/ml)”.
With B8, the binding result was “no binding (tested: approximately 10 µg/ml)”.
In the case of B9, the binding result was “no binding (tested: approximately 10 µg/ml)”.
On to B10, for which the binding result is on record as “no binding (tested: approximately 10 µg/ml)”.

For another experiment, the target named is SARS-CoV S1 spike protein domain (recombinant) (SARS-CoV, UniProt P59594 14-667). Nature of the experiment: ELISA on coated SARS-CoV S1.
On to B1, for which the binding result is listed as “no binding”.
